According to patent publication US20140271682, “HUMAN HOMEOBOX GENE VENTX AND MACROPHAGE TERMINAL DIFFERENTIATION AND ACTIVATION, COMPOSITIONS AND METHODS THEREOF” (published 2014):

Biological target: T1, VentX (Homo sapiens, UniProt O95231 SEQ:1-258)
T1 sequence: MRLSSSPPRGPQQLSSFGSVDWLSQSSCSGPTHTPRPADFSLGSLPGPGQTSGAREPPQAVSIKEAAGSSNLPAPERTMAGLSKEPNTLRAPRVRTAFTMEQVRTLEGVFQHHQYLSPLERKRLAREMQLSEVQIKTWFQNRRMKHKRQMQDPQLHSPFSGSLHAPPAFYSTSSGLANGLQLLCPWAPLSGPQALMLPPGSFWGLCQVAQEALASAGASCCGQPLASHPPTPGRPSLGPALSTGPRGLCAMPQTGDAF
Experiment: EMSA; fluorescence-based EMSA kit
Conditions: tags: pCS2-VentX, TNT reticulocyte lysate
Description: Lysate Systems, Promega). […] Gel shift assay was performed with a fluorescence-based Electrophoretic Mobility Shift Assay (EMSA) Kit from Invitrogen following the manufacturer's instruction. The following double-stranded oligonucleotides were used in the experiments: 5′-[…]-3′ (wild type M-CSFR probe, putative homeodomain binding sequence is in bold and underlined); 5′-[…]-3′ (mutant M-CSFR);

B1: M-CSFR promoter probe wild type (dsDNA)
DNA 1: CTGCGTCTCTAAAATAATAATAATAAATTTTTAAAAGATATGC
DNA 2: GCATATCTTTTAAAAATTTATTATTATTATTTTAGAGACGCAG
- binding result: binds
